Measured values from patent publication US8518892B2, “Methods to treat symptoms of pathophysiology related to body mass” (Board of Supervisors of Louisiana State University and …, priority 2005, dated 2013).

Test system: diet induced obese (DIO) C57BL/6J mice
Assay: Enho 1 ip for 3 days in diet induced obese C57BL/6J mice (Examples 19-21)
Type: in vivo, mouse
Procedure: (§1) The effect of Enho-1 upon weight loss was tested over the course of 3 days using diet induced obese (DIO) C57BL/6J mice (Jackson Laboratories, Bar Harbor, Me.). The mice were fed Research Diets 12492 (60% kJ/fat) for 12 weeks, resulting in obesity and moderate hyperglycemia in the animals. The mice were approximately 20-22 weeks of age and 30-50 g in weight at the start of the experiment. Fasting blood glucose was determined to be approximately 170-220 mg/dL. Six control mice received vehicle only while six test mice each received doses of either 90 nmol/kg/d, 900 nmol/kg/d or 9000 nmol/kg/d. The injections were given as 3 ip injections at 0600, 1400 and 2000 h on days 1 and 2; over the 3 day period, the mice received a total of 7 injections. All animals were euthanized 5 hours after the last injection given the morning of the third day. Food was removed after the final injection.
as §1, with “insulin and glucose” for “weight loss”
The HOMA-IR for each treatment was calculated using the following formula: ((glucose mg/dL÷18)×(insulin ng/ml×25.05))÷22.5
as §1, with “liver weight, liver lipid content and liver TG” for “weight loss”

[1] = 90 nmol/kg/d ip, listed as Enho-1
[2] = 900 nmol/kg/d ip, listed as Enho-1
[3] = 9000 nmol/kg/d ip, listed as Enho-1

B1: Enho 1: human Enho 1, a 76 amino acid peptide having the sequence SEQ ID NO: 14 (peptide, listed as Homo sapiens)
chain: MGAAISQGALIAIVCNGLVGFLLLLLWVILCWACHSRSADVDSLSESSPNSSPGPCPEKAPPPQKPSHEGSYLLQP
Blood glucose (90 nmol/kg/d ip): 204 mg/dL | Delta body weight (90 nmol/kg/d ip): 2.9% | HOMA-IR (90 nmol/kg/d ip): 50 | HOMA-IR decrease as compared to the control group (90 nmol/kg/d ip): 15% | Insulin (90 nmol/kg/d ip): 3.8 ng/mL | Liver TG (90 nmol/kg/d ip): 57 mg/g | Liver TG total (90 nmol/kg/d ip): 86 mg/g | Liver lipid (90 nmol/kg/d ip): 126 mg/g | Liver lipid total (90 nmol/kg/d ip): 188 mg/g | Liver weight (90 nmol/kg/d ip): 1.5 grams | Liver weight % body weight (90 nmol/kg/d ip): 3.6% | Weight (pre-treatment) (90 nmol/kg/d ip): 42.9 g | Weight (termination) (90 nmol/kg/d ip): 41.7 g | Blood glucose [1]: 204 ± 7 mg/dL | HOMA-IR [1]: 50 ± 5 | HOMA-IR decrease as compared to the control group [1]: (↓ 15%) | Insulin [1]: 3.8 ± 0.4 ng/mL | Liver TG [1]: 57 ± 8 mg/g | Liver TG total [1]: 86 ± 14 mg/g | Liver lipid [1]: 126 ± 8 mg/g | Liver lipid total [1]: 188 ± 13 mg/g | Liver weight [1]: 1.5 ± 0.0 grams | Liver weight % body weight [1]: 3.6 ± 0.1% | Weight (pre-treatment) [1]: 42.9 ± 1.2 g | Weight (termination) [1]: 41.7 ± 0.9 g | Delta body weight (900 nmol/kg/d ip): 3.5% | HOMA-IR (900 nmol/kg/d ip): 42 | Insulin (900 nmol/kg/d ip): 4.2 ng/mL | Liver TG (900 nmol/kg/d ip): 48 mg/g | Liver TG total (900 nmol/kg/d ip): 66 mg/g | Liver lipid (900 nmol/kg/d ip): 137 mg/g | Liver lipid total (900 nmol/kg/d ip): 226 mg/g | Liver weight (900 nmol/kg/d ip): 1.5 grams | Liver weight % body weight (900 nmol/kg/d ip): 3.5% | Weight (pre-treatment) (900 nmol/kg/d ip): 42.8 g | Weight (termination) (900 nmol/kg/d ip): 41.3 g | blood glucose levels decrease (900 nmol/kg/d ip): approximately 15% | insulin levels reduction (900 nmol/kg/d ip): about 14% | Blood glucose (900 nmol/kg/d ip, P < 0.05 vs 90): 166 mg/dL | Blood glucose (900 nmol/kg/d ip, P < 0.05 vs 90, listed as Enho-1): 166 ± 13 mg/dL | HOMA-IR [2]: 42 ± 3 | Insulin [2]: 4.2 ± 0.5 ng/mL | Liver TG [2]: 48 ± 12 mg/g | Liver TG total [2]: 66 ± 14 mg/g | Liver lipid [2]: 137 ± 34 mg/g | Liver lipid total [2]: 226 ± 77 mg/g | Liver weight [2]: 1.5 ± 0.2 grams | Liver weight % body weight [2]: 3.5 ± 0.2% | Weight (pre-treatment) [2]: 42.8 ± 2.9 g | Weight (termination) [2]: 41.3 ± 2.7 g | HOMA-IR decrease as compared to the control group (900 nmol/kg/d ip, p<0.02): 29% | HOMA-IR decrease as compared to the control group (900 nmol/kg/d ip, p<0.02, listed as Enho-1): (↓ 29%) | Blood glucose (9000 nmol/kg/d ip): 198 mg/dL | Delta body weight (9000 nmol/kg/d ip): 4.1% | HOMA-IR (9000 nmol/kg/d ip): 52 | HOMA-IR decrease as compared to the control group (9000 nmol/kg/d ip): 12% | Insulin (9000 nmol/kg/d ip): 4.2 ng/mL | Liver TG (9000 nmol/kg/d ip): 47 mg/g | Liver TG total (9000 nmol/kg/d ip): 63 mg/g | Liver lipid (9000 nmol/kg/d ip): 139 mg/g | Liver lipid total (9000 nmol/kg/d ip): 230 mg/g | Liver weight (9000 nmol/kg/d ip): 1.4 grams | Liver weight % body weight (9000 nmol/kg/d ip): 3.4% | Weight (pre-treatment) (9000 nmol/kg/d ip): 42.7 g | Weight (termination) (9000 nmol/kg/d ip): 40.9 g | liver TG reduction as compared to the control group (9000 nmol/kg/d ip): 18-19% | Blood glucose [3]: 198 ± 9 mg/dL | HOMA-IR [3]: 52 ± 4 | HOMA-IR decrease as compared to the control group [3]: (↓ 12%) | Insulin [3]: 4.2 ± 0.3 ng/mL | Liver TG [3]: 47 ± 9 mg/g | Liver TG total [3]: 63 ± 10 mg/g | Liver lipid [3]: 139 ± 42 mg/g | Liver lipid total [3]: 230 ± 96 mg/g | Liver weight [3]: 1.4 ± 0.2 grams | Liver weight % body weight [3]: 3.4 ± 0.3% | Weight (pre-treatment) [3]: 42.7 ± 1.6 g | Weight (termination) [3]: 40.9 ± 1.6 g | serum TG reduction as compared to the control group (9000 nmol/kg/d ip, p<0.05, 1-tailed t-test): 20%
